In patent US20180162928A1 (Janssen / Centocor, published 2018):

Key:
Test in all cases: ELISA, lysate on plate-bound antigen
[1] = target: unrelated Fc-fused recombinant protein
[2] = target: human serum albumin (human) (UniProt P02768)
[3] = target: T1, recombinant biotinylated PD-L1 (rhPD-L1/Fc Chimera, R&D Systems 156-B7) (human, UniProt Q9NZQ7 19-238, biotinylated (sites not given))
T1 construct: Bought Fc chimera; also called human PD-L1
Protocol: Streptavidin-coated Maxisorp plates (Nunc catalog 436110) were blocked for 1 h in Starting Block T20 (Pierce) and then coated with biotinylated PD-L1 (using same antigen as in panning) or negative controls (an unrelated Fc-fused recombinant protein and human serum albumin) for 1 h. Plates were rinsed with TBST and diluted lysate was applied to plates for 1 h. Following additional rinses, wells were treated with HRP-conjugated anti-FN3 domain antibody (PAB25) for 1 h and then assayed with POD (Roche catalog 11582950001).

Chain of human serum albumin (human) (P02768 25-609 limits assumed): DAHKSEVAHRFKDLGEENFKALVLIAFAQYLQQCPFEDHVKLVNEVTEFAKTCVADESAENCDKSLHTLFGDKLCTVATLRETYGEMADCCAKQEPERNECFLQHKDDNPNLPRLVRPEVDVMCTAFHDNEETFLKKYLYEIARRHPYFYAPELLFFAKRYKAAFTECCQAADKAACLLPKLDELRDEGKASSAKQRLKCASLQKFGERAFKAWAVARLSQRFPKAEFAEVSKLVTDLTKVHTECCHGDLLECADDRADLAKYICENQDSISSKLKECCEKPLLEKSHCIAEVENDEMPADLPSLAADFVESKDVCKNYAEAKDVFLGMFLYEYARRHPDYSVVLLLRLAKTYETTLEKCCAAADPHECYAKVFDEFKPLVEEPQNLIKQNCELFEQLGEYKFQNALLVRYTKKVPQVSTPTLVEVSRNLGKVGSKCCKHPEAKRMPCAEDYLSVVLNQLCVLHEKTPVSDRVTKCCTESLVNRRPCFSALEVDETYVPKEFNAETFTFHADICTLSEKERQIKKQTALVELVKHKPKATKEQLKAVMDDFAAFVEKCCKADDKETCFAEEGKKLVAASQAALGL
T1 sequence (Q9NZQ7 19-238, change not shown): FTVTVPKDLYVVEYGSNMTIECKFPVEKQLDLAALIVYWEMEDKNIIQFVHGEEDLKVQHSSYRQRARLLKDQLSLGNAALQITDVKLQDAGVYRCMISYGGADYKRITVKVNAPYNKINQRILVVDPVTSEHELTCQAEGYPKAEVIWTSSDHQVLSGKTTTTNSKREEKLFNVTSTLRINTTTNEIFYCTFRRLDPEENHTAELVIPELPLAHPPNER

Row | Binder | ELISA Fc Control (RSU) [1] [RSU] | ELISA HSA (RSU) [2] [RSU] | ELISA PD-L1 Fc (RSU) [3] [RSU]
1 | ISOP194BR9P1A5 (designed binder, not shown: small tags and cut ends, FN3 domain; E. coli lysate in the ELISA) LPAPKNLVVSRVTEDSARLSWFNADEEYFDSFLIQYQESEKVGEAIVLTVPGSERSYDLTGLKPGTEYTVSIYGVYQRGYHNWFSNPLSAIFTT | 800 | 1280 | 3.18e+06
2 | ISOP194BR9P1C8 (designed binder, not shown: small tags and cut ends, FN3 domain; E. coli lysate in the ELISA) LPAPKNLVVSRVTEDSARLSWYFAGELWFDSFLIQYQESEKVGEAIVLTVPGSERSYDLTGLKPGTEYTVSIYGVYQRGYHNWFSNPLSAIFTT | 640 | 1280 | 6.11e+06
3 | ISOP121BR5P1D11 (designed binder, not shown: small tags and cut ends, FN3 domain; E. coli lysate in the ELISA) LPAPKNLVVSRVTEDSARLSWFNADEEYFDSFLIQYQESEKVGEAIVLTVPGSERSYDLTGLKPGTEYTVSIYGVYVRAVRFVSSNPLSAIFTT | 800 | 1120 | 2.44e+06
4 | ISOP194ER9P1A11 (designed binder, not shown: small tags and cut ends, FN3 domain; E. coli lysate in the ELISA) LPAPKNLVVSRVTEDSARLSWTAPDAAFDSFRIAYYETMVSGEAIVLTVPGSERSYDLTGLKPGTEYAVIIKGVKGGKPSWPLSAIFTT | 800 | 880 | 4.35e+06
5 | ISOP194ER9P1H9 (designed binder, not shown: small tags and cut ends, FN3 domain; E. coli lysate in the ELISA) LPAPKNLVVSRVTEDSARLSWTAPDAAFDSFRIAYYETMVSGEAIVLTVPGSERSYDLTGPKPGTEYAVIIKGVKGGKPSWPLSAIFTT | 720 | 880 | 3.04e+06
6 | ISOP194ER9P1A3 (designed binder, not shown: small tags and cut ends, FN3 domain; E. coli lysate in the ELISA) LPAPKNLVVSRVTEDSARLSWTAPDAAFDSFRIAYYETMVSGEAIVLTVPGSERSYDLTGLKPGTEYAVIIKGVKGGMVSWPLSAIFTT | 560 | 800 | 2.36e+06
7 | ISOP121AR5P1D11 (designed binder, not shown: small tags and cut ends, FN3 domain; E. coli lysate in the ELISA) LPAPKNLVVSRVTEDSARLSWEWLEHFDSFLIQYQESEKVGEAIVLTVPGSERSYDLTGLKPGTEYTVSIYGVYQRKVEFHSNPLSAIFTT | 640 | 1040 | 393000
8 | ISOP121AR5P1A10 (designed binder, not shown: small tags and cut ends, FN3 domain; E. coli lysate in the ELISA) LPAPKNLVVSRVTEDSARLSWPDWSNSEYFDSFLIQYQESEKVGEAIVLTVPGSERSYDLTGLKPGTEYTVSIYGVYARHRLFVSNPLSAIFTT | 1120 | 560 | 789000
9 | ISOP194AR9P1G7 (designed binder, not shown: small tags and cut ends, FN3 domain; E. coli lysate in the ELISA) LPAPKNLVVSRVTEDSARLSWGDDFNSEYFDSFLIQYQESEKVGEAIVLTVPGSERSYDLTGLKPGTEYTVSIYGVYTRAVVFTSNPLSAIFTT | 1280 | 560 | 1.59e+07
10 | ISOP121BR5P1G3 (designed binder, not shown: small tags and cut ends, FN3 domain; E. coli lysate in the ELISA) LPAPKNLVVSRVTEDSARLSWKQRTSFHFDSFLIQYQESEKVGEAIVLTVPGSERSYDLTGLKPGTEYTVSIYGVPFWQQWQPESNPLSAIFTT | 560 | 640 | 771000
11 | ISOP121BR5P1D6 (designed binder, not shown: small tags and cut ends, FN3 domain; E. coli lysate in the ELISA) LPAPKNLVVSRVTEDSARLSWKQGTSFHFDSFLIQYQESEKVGEAIVLTVPGSERSYDLTGLKPGTEYTVSIYGVQLLANDIISSNPLSAIFTT | 560 | 880 | 2.44e+06
12 | ISOP121GR5P1D7 (designed binder, not shown: small tags and cut ends, FN3 domain; E. coli lysate in the ELISA) LPAPKNLVVSRVTEDSARLSWTAPDAAFDSFKIWYQERSIVGEAIFLLVPGSERSYDLTGLKPGTEYIVQIFGVKGGPYSNPLWAPFTT | 720 | 720 | 792000
13 | ISOP194HR9P1D11 (designed binder, not shown: small tags and cut ends, FN3 domain; E. coli lysate in the ELISA) LPAPKNLVVSRVTEDSARLSWTAPDAAFDSFSILYGELIGDGEAIVLTVPGSERSYDLTGLKPGTEYTVYIFGVKGGRYSRPLSAIFTT | 480 | 1680 | 6.62e+06
14 | ISOP121FR5P1H9 (designed binder, not shown: small tags and cut ends, FN3 domain; E. coli lysate in the ELISA) LPAPKNLVVSRVTEDSARLSWTAPDAAFDSFSILYGETAPIGEAIVLTVPGSERSYDLTGLKPGTEYVVYIQGVKGGNYSQPLSAIFTT | 720 | 880 | 1.2e+06
15 | ISOP121AR5P1H1 (designed binder, not shown: small tags and cut ends, FN3 domain; E. coli lysate in the ELISA) LPAPKNLVVSRVTEDSARLSWKQATKFVFDSFLIQYQESEKVGEAIVLTVPGSERSYDLTGLKPGTEYTVSIYGVPDWFVLESNPLSAIFTT | 880 | 880 | 1.48e+06
16 | ISOP121AR5P1E11 (designed binder, not shown: small tags and cut ends, FN3 domain; E. coli lysate in the ELISA) LPAPKNLVVSRVTEDSARLSWSVQTSFVFDSFLIQYQESEKVGEAIVLTVPGSERSYDLTGLKPGTEYTVSIYGVPLWHGFDSNPLSAIFTT | 720 | 720 | 1.84e+06
17 | ISOP121AR5P1C5 (designed binder, not shown: small tags and cut ends, FN3 domain; E. coli lysate in the ELISA) LPAPKNLVVSRVTEDSARLSWKRSDDEWFDSFLIQYQESEKVGEAIILTVPGSERSYDLTGLKPGTEYTVSIYGVYQRAALWFSNPLSAIFTT | 640 | 560 | 732000
18 | ISOP194AR9P1E3 (designed binder, not shown: small tags and cut ends, FN3 domain; E. coli lysate in the ELISA) LPAPKNLVVSRVTEDSARLSWKRSDDEWFDSFLIQYQESEKVGEAIVLTVPGSERSYDLTGLKPGTEYTVSIYGVYQRAALWFSNPLSAIFTT | 1120 | 800 | 4.57e+06

Second part, the binder after the results:

Row | ELISA Fc Control (RSU) [1] [RSU] | ELISA HSA (RSU) [2] [RSU] | ELISA PD-L1 Fc (RSU) [3] [RSU] | Binder
19 | 560 | 720 | 1.42e+06 | ISOP121BR5P1F10 (designed binder, not shown: small tags and cut ends, FN3 domain; E. coli lysate in the ELISA) LPAPKNLVVSRVTEDSARLSWPLNLEYFDSFLIQYQESEKVGEAIVLTVPGSERSYDLTGLKPGTEYTVSIYGVYGRYGGPFVSNPLSAIFTT
20 | 560 | 720 | 4.29e+06 | ISOP194ER9P1G3 (designed binder, not shown: small tags and cut ends, FN3 domain; E. coli lysate in the ELISA) LPAPKNLIVSRVTEDSARLSWTAPDAAFDSFRIAYYETMVSGEAIVLTVPGSERSYDLTGLKPGTEYAVIIKGVKGGKPSWPLSAIFTT
21 | 640 | 720 | 697000 | ISOP121GR5P1F7 (designed binder, not shown: small tags and cut ends, FN3 domain; E. coli lysate in the ELISA) LPAPKNLVVSRVTEDSARLSWTAPDAAFDSFGINYVERASEGEAIDLGVPGSERSYDLTGLKPGTEYFVKIFGVKGGIPSVPLWAWFTT
22 | 38200 | 15000 | 1.39e+07 | ISOP194AR9P1C10 (designed binder, not shown: small tags and cut ends, FN3 domain; E. coli lysate in the ELISA) LPAPKNLVVSRVTEDSARPSWEWLEHFDSFLIQYQESEKVGEAIVLTVPGSERSYDLTGLKPGTEYTVSIYGVYNRKVNFYSNPLSAIFTT
23 | 6960 | 67700 | 3.4e+06 | ISOP194AR9P1E8 (designed binder, not shown: small tags and cut ends, FN3 domain; E. coli lysate in the ELISA) LPAPKNLVVSRVTEDSARLSWEWLEHFDSFLIQYQESEKVGEAIVLTIPGSERSYDLTGLKPGTEYTVSIYGVYQRKVEFHSNPLSAIFTT
24 | 56400 | 5920 | 3.55e+06 | ISOP194AR9P1C3 (designed binder, not shown: small tags and cut ends, FN3 domain; E. coli lysate in the ELISA) LPAPKNLVVSRVTQNSARLSWEWLEHFDSFLIHYQESEKVGEAIVLTVPGSERSYDLTGLKPGTEYTVSIYGVYQRKVEFHSNPLSAIFTT
25 | 5520 | 1600 | 1.97e+07 | ISOP194AR9P1E9 (designed binder, not shown: small tags and cut ends, FN3 domain; E. coli lysate in the ELISA) LPAPKNLVVSRVTEDSARLSWEWLEHFDSFLIQYQESEKVGEAIVLTVPGSERSYDLTGLKPGTEYTVSIYGVYQRKVNFYSNPLSAIFTT
26 | 480 | 880 | 1.54e+06 | ISOP121BR5P1D10 (designed binder, not shown: small tags and cut ends, FN3 domain; E. coli lysate in the ELISA) LPAPKNLVVSRVTEDSARLSWGKKSHFFDSFLIQYQESEKVGEAIVLTVPGSERSYDLTGLKPGTEYTVSIYGVYTRGQCEWESNQLSAIFFTT
27 | 640 | 560 | 592000 | ISOP121AR5P1B8 (designed binder, not shown: small tags and cut ends, FN3 domain; E. coli lysate in the ELISA) LPAPKNLVISRVTEDSARLSWDKRTQFAFDSFLIQYQESEKVGEAIVLTVPGSERSYDLTGLKPGTEYTVSIYGVPTWSGRTQSNPLSAIFTT
28 | 800 | 720 | 12800 | ISOP121BR5P1D7 (designed binder, not shown: small tags and cut ends, FN3 domain; E. coli lysate in the ELISA) LPAPKNLGCFSRYRRLSRLSWETPYPSLSNFDSFLIQYQESEKVGEAIVLTVPGSERSYDLTGLKPGTEYTVSIYGVLKLSAAWWPSNPLSAIFTT
29 | 480 | 640 | 907000 | ISOP121HR5P1F2 (designed binder, not shown: small tags and cut ends, FN3 domain; E. coli lysate in the ELISA) LPAPKNLVVSRVTEDSARLSWTAPDAAFDSFTILYGETYSGGEAIVLTVPGSERSYDLTGLKPGTEYVVYIFGVKGGKWSRPLSAIFTT
30 | 400 | 1840 | 5.66e+06 | ISOP194HR9P1B2 (designed binder, not shown: small tags and cut ends, FN3 domain; E. coli lysate in the ELISA) LPAPKNLVVSRVTEDSARLSWTAPDAAFDSFSILYGELIGDGEAIVLTVPGSERSYDLTGLKPGSEYTVYIFGVKGGRYSRPLSAIFTT
